# In a protein production outcome set (Wang et al. 2014):
# Experiment: label from the status in PepcDB records
row,Sequence,protein production
1,MVRLTPFYKKLSILFVEDEREVQEAALNVLERYIDHILVASDGEEALAIFKEKRPDIVITDIKMPVMDGLALTKEIKELGDTPVIVISAFDNEEFVSEAARLGVETYLLKPIDIQLLLASINRCIELLIRREEARQNRSLLREYKRIVDETAMICKIDLDKTITYANEAFCQISGYSKEELTGKIYRHMVSPRQDLSRLDGGLWVNVLRGKSWKGMIELLNKKGEPYFIQASMFPLFDADGKITELIALQFDITEHIKTKQILEKQNQKLEHIAHTDTLTGVWNRYKFNKILRQEIKCAKSSNHPFSLMLLDVDRFKTINDTHGHQFGDRVLKAITSTLKRQLKHKEAMIARWGGEEFIVLAQGYRLAQALELAERLRAAIEGMEFENIPITSSFGVTEFSPEDELDTLVRRADLALYTAKESGRNRIISY,failed
2,MVRRLACKRAYRFRFYPTPEQEQLLRRTVGCCRKVYNLALEARSTAWTAERRSITYVQTSAMLTQWKQTAEYSYMNEVSCVPLQQALRHLQTAFSNFFKQTGDYPRFKAKSHGGSAEYTRSAFTWDAKRNELTLAKMRGPLPIRWSRTLPRKTEPSTVTVSLDAAGRWHVSILVEEAIRPLPARGDAVGIDLGVDSYAVTSDGETIANPRHYRKLAERLEREQRALSRKTKGGNNRRKAALKVARTYARITDMRRDFLHKLSTRIIRENQTVVLEDLNVRNMARRCAPKPDPDNPNHWLPNGQSAKNGLNGSIMDAGWSEFRRMLEYKAEWYGRKLITIDRYYPSTQICSHCGAKTGPKGMPGLTVRAWTCPDCGTTHDRDLNAAENILAAGLAVSVCKDGRTGTKVSH,failed
3,MVRVFNHWFSPRKAFYFFAEETVLVVALLAGASLGPVAAQATGAAAPIAPAVLRAGLASLFFAGALYLGDLYDLHAAVRDRADGRRLLRALGVATIALAIADLSLDLVLPGWMLHRSVVLAAAGGALGVIGARALMPAVVGAPTRVLFLGAGPRARDLARAVEREADGLWAVAGFVVPEGSRAPAVVPPEALRQGPVLDVVRQARAQVVVVAMEDRREGLPVDALLALRTRGLRVVDDVGFAEATLQRIPLALVRPSALIFDEGFRVSRLTRTVKRALDLGVSAVGLLLGAPVMAAVAAAIWLSDGRPLLYSQERTGRGGRPYRIWKFRTMRRDAEKLGAAWATDDDPRVLPVGRFLRRARLDELPQLWNVLGGHMSLVGPRPERAVFLSELKARWPLFALRELVKPGLTGWAQLRYGYGSTMEEQAKKLEYDLYYIKNTTLFLDLVCLLATAKVVLLGRGAR,failed
4,MVSLTKRCIAEFIGTFILVFFGAGSAAVTLMIASGGTSPNPFNIGIGLLGGLGDWVAIGLAFGFAIAASIYALGNISGCHINPAVTIGLWSVKKFPGREVVPYIIAQLLGAAFGSFIFLQCAGIGAATVGGLGATAPFPGISYWQAMLAEVVGTFLLMITIMGIAVDERAPKGFAGIIIGLTVAGIITTLGNISGSSLNPARTFGPYLNDMIFAGTDLWNYYSIYVIGPIVGAVLAALTYQYLTSE,not failed
5,MVSLTMVPIDALLSKEVNAFIVQHKHASVAELMLRMPVFTVDSRWIAAQIEGWQKASQKLPLWASTENIIYPIRLSMEQCSSERTAHYKSTLMSGERLVDLTGGFGVDSFYLSKSFNEVIYIEQQEDLAEIAAHNFSTLNQNNIVVKTADSDEYLKDIAEKIDVIFLDPARRKEMRKVYKLSDCEPNVVALQSFYFSKADVILIKTSPMLDITEATRQLTGIKEIHVVSVDNECKEVLYLLEKNYSGKATYICAHDYKKQLQLFSFTIAAEQAVTLSYSAPLAYLYEPNPSILKAGGFNSITQKYEVFKLHASSHLYTSASEVSDFPGRTFKIKETVGYSKKDIQAAVPGGKANIQTRNFPDSVEAIRKKTGLKDGGNIFIFATTLHDLSKVLLICEKI,failed
6,MVSMLTRIRRQIKRVIEPLAKTLAQLKVSANFITMLGLIFAIVYYFEIMRSNTTLGIIFLVFSALMDAIDGEVARVSKTVSPLGSFLDSTLDRIEDILYISAFIFLGFSSYLVAIAVGLSLTISYIRAKAESLGLKMEGRGIIERGERIIFVFVILLLYIIVSKQVSLYLFYLFMLLTAITVIQRFYAVYSLLRK,failed
7,MVSNQRVRLFMLCFCLVNNAVIAATEDENVERKPYIVYMGEATENSLVEAAENHHNLLMTVIGDESKARELKIYSYGKNINGFVARLFPHEAEKLSREEGVVSVFKNTQRQLHTTRSWDFLGLVESKYKRSVGIESNIIVGVLDTGIDVESPSFNDKGVGPPPAKWKGKCVTGNNFTRCNNKVIGAKYFHIQSEGLPDGEGDTAADHDGHGTHTSSTIAGVSVSSASLFGIANGTARGGVPSARIAAYKVCWDSGCTDMDMLAAFDEAISDGVDIISISIGGASLPFFEDPIAIGAFHAMKRGILTTCSAGNNGPGLFTVSNLAPWVMTVAANSLDRKFETVVKLGNGLTASGISLNGFNPRKKMYPLTSGSLASNLSAGGYGEPSTCEPGTLGEDKVMGKVVYCEAGREEGGNGGQGQDHVVRSLKGAGVIVQLLEPTDMATSTLIAGSYVFFEDGTKITEYINSTKNPQAVIFKTKTTKMLAPSISSFSARGPQRISPNILKPDISAPGLNILAAYSKLASVTGYPDDNRRTLFSIMSGTSMACPHAAAAAAYVKSFHPDWSPAAIKSALMTTATPMRIKGNEAELSYGSGQINPRRAIHPGLVYDITEDAYLRFLCKEGYNSTSIGLLTGDNSNNTTKKEYNCENIKRGLGSDGLNYPSLHKQVNSTEAKVSEVFYRTVTNVGYGPSTYVARVWAPKGLRVEVVPKVMSFERPKEKRNFKVVIDGVWDETMKGIVSASVEWDDSRGHLVRSPILLFRSDNDYR,failed
8,MVSPKKESKSMKILKNLALPIAMALGVLAWPILSPLSFLIPYMIFLMLFFTFLKISPRDMHFSRLHLLLALIQITLAIGGFFAFRLLDPIVAEGVMICFICPAATASSVIIGMLGGNIAFGATYVLLTHMGVAVLGPLLFSSLSTAHADMPFWSSVIHILWGVLPLVVVPLLAAWIIRFTSPRTHARLLRIPQMAFWLWVTSLAIIMAKTTGYVMAQGSDSIRLELLLALGGLLSCLLQFGLGKWLSKRYLKESITAGQALGQKNTSLAIWMSLTYLNPIASIAPASYVVWQNSLNSIQIWLYDKRKNKTDRQ,failed
9,MVSRRLQDSANRLFGKAATFIENGKYDRALESLKDVDKIMKKEKDPEISFHTLFLKGYTISKAGDPEGALEFYGEALKIIEPLFSGEPGKKNYQKFISNMIEEIGSSFDELNDEERAEELLGPMEKQFEKVVRTFEELVKSDPENQEYLSGFLEIIGSMGVCYQAGQLMDQAVKLFDKKIDIYEKLFELESGETDLLGDFDEDIELYGYLFRNYGHLKEAEGNYFRAAGIYRKMIEKDPENSMAEYYLSYTYSYHGSLYSGMENLEKAERYYEEAVELMDKGYKEFPEDYAYAVSLANIHESYGVAFSNRKYLEKSIANYTKAREIYRDLIINHPSEFARNKKIAMYLDDLGDRFSKIGEFEAAELCYKDKLDVFRNLHDEDPEDLNPIFEISDTYEELGDIFAEHGETGKAKAYYEKEIEIYESLLETEPDALDYKTYMAEVQATIGKLYLDEEPEKAQKYFEDALSVLENNFELEPEMDIHYSVLKKVLNNFIQLFKNQEEHEKAAEMYSKLLAVQQRMLDLNPEEREYKEDLAVTYTNLALLHSERGDIEQEARYHRLALDIHEKILEESSDYPLFLQRFVTGIYLLGSRLKLDEESRGKESGIVKEYLELAKKAENKLYAVKPEIMEDKELIAEIAEKMGISFRENEMYEEAIEEFKRSLAIREKLHEKNPENLNYLTVLEGIFHQMGITFLAQKDLEKAKETLEKAMDLNAKLLETDPEDFNYLARSSMIFETYSSVLENMGKSEEAAKYLAKAEEINAKLGYSNE,failed
10,MVSRTGRTHLPLVDSLKEKLPYILCGLLALAGVLLVWSLGSTFLPVLLALILAYVLNPLVTWLEARRVPRVAAVLLVMALIVVVTAGAVTFFAVSIQKEVARVEINLPAYATRLYDLIPGQAKAYLEIETPDKLYARIDSLVDELRGASFDLVKGALGVVQRAFSSTLGFLLTVAGYFITPVYLYYFLADLPRLRDGIMALVPGRARDRAAMLGSEIDGVLSGFVRGQLAVCAILAVLYSIGLVMIGIDLAIVIGSLSGFLFIIPYVGTVFGIVVSMIMAFLKFHDMLHPLLCLGWFAIVQAIEGALITPAVVGNTVGLHPVVAILALFIGGQWFGIFGMLLAVPVAAVIKVLLRHGVEWYRATPFFERP,failed
11,MVSSAIVLGLTAATVLVFTGIGLFAARGRIDSVETYISARDSAGSGTLAATVIASMMGVWILLSPAEAGAAFGGLPAVLGYAIGSAIPLLLFIPVGARIREVMPAGHSLTEFAYARFGSGMYLLVLLVSVFYMFIFLAAEMTGIAGALALVADVPLWQTSLLIGGFVLVYTAYGGLLASIVTDTVQTLVILPLLAVGFGGALLSLGGTSEFHATVVSADPTLLDPGFGPGLEFGLYVAFALLGANMLNQGVWQRVYAADGDGALRRGMGIAAVVVVPMLLLSGLFGIAAAGLGLTESGSASIAFFLVVAEAFPTWVTLAVVVLAVLLVMSSADTMFNAIASVVTADLARLLDDPDQRTLWLGGRGLTVAVALAAMFIGAQGYSVLQLFLTADLLAAGVFVPFLAGLYTERLTGPGALVSGIAGLLVGFTYFPSLRGLMAAIPGVGSMLPAPSFLIAFAGATLVSAALTAVATLLGGADADLDSLGREVRALDDPVADGGSEQ,failed
12,MVSSSNNSSIAKAFVTVAAIFIIFAGIKTAANILVPFLLSVFIAIICNPLINKASEYKIPKAVSVIFVIVVFVTMAVFLTGLVGSSLNELSQQIPQYRIQLKEQFTWLTSFLNSHDIQLSSSIVTEYFDPAAAMGLAADMLSSFGSVMTNLFLIILTVVFMLFESSTIPHKLHLALDDPQMRLNQIERFLSSVNQYIAIKTLVSIATGCIVSLMLWIFGLDFFLLWGVLAFLLNYIPNIGSIIAAVPPMTLAILQLSIGEAGAIGLGFVLINMVMGNIIEPRYLGKGLGLSTLVVFLSLIFWGWLLGTVGMLLSVPLTMILKIGLESSPEGRWLAVMLSDEVELVDKTEQALLD,failed
13,MVSTLGSDTFTSISAHDLHGKLGNIHLIDVRENDDFKEGHIPTSRNIPMDILLKEPEKYINKTDEYYIVCQAGVKSEKTCKELWSKGYKVINIKDGTDSYKQPLER,failed
14,MVSVNSSHCFYNDSFKYTLYGCMFSMVFVLGLISNCVAIYIFICVLKVRNETTTYMINLAMSDLLFVFTLPFRIFYFTTRNWPFGDLLCKISVMLFYTNMYGSILFLTCISVDRFLAIVYPFKSKTLRTKRNAKIVCTGVWLTVIGGSAPAVFVQSTHSQGNNASEACFENFPEATWKTYLSRIVIFIEIVGFFIPLILNVTCSSMVLKTLTKPVTLSRSKINKTKVLKMIFVHLIIFCFCFVPYNINLILYSLVRTQTFVNCSVVAAVRTMYPITLCIAVSNCCFDPIVYYFTSDTIQNSIKMKNWSVRRSDFRFSEVHGAENFIQHNLQTLKSKIFDNESAA,failed
15,MVTKILKAPDGSPSDVERIKKESDYLRGTLKEVMLDRISAGIPDDDNRLMKHHGSYLQDDRDLRNERQKQKLEPAYQFMLRVRMPGGVSTPEQWLVMDDLSQKYGNGTLKLTTRETFQMHGILKWNMKKTIQTIHSALLDTIAACGDVNRNVMCASNPYQSEIHSEVYEWSKKLSDDLLPRTRAYHEIWLDEERVAGTPEEEVEPMYGPLYLPRKFKIGIAVPPSNDIDVFSQDLGFIAIVEDGKLIGFNVAIGGGMGMTHGDTATYPQLAKVIGFCRPEQMYDVAEKTITIQRDYGNRSVRKNARFKYTVDRLGLENVKEELENRLGWSLEEAKPYHFDHNGDRYGWVEGIEDKWHFTLFVEGGRITDYDDYKLMTGLREIAKVHTGEFRLTANQNLMIANVSSDKKEEISALIEQYGLTDGKHYSALRRSSMACVALPTCGLAMAEAERYLPTLLDKIEEIIDENGLRDQEITIRMTGCPNGCARHALGEIGFIGKAPGKYNMYLGAAFDGSRLSKMYRENIGEADILSELRILLSRYAKEREEGEHFGDFVIRAGIIKATTDGTNFHD,failed
